Experimental findings from patent publication US20160075784A1 are described below.

Assay [1] concerns the target CS1-specific CAR (anti-CS1-scFv-CD28-CD3ζ; Pinco-CS1-CAR construct), expressed on transduced primary human T cells. The assay can be described thus: flow cytometry, CS1-CAR-transduced healthy donor T cells. Background: In flow cytometry, cells or beads pass a laser one at a time.
Assay [2] has the same target. The assay can be described thus: flow cytometry, CS1-CAR-transduced T cells of patients with relapsed myeloma, double staining with anti-CD3.

CS1-specific CAR (anti-CS1-scFv-CD28-CD3ζ; Pinco-CS1-CAR construct), expressed on transduced primary human T cells, sequence (chain, as listed by the source): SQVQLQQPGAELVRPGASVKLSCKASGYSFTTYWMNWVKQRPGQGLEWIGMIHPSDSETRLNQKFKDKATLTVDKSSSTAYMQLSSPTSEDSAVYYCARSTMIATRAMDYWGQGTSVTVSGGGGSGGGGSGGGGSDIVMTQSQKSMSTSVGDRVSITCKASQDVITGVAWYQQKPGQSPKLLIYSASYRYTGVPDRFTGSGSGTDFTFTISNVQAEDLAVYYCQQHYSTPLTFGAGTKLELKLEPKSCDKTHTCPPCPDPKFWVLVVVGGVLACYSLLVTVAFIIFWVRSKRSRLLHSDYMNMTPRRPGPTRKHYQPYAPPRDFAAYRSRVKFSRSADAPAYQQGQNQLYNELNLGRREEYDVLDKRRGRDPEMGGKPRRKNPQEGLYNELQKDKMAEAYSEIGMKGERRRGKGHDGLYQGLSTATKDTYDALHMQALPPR

“biotin-labeled goat anti-mouse (Fab)2 polyclonal antibody (Jackson ImmunoResearch)”: the results for the percent of cells stained in assay [1] and in assay [2] were 70.3% and 60.7%, respectively.
